Target: SARS-CoV-2 stabilized S trimer (HexaPro) (SARS-CoV-2)
Assay: negative-stain EM

SARS-CoV-2 stabilized S trimer (HexaPro) (domain or fragment)
stoichiometry N: 3

— PMC8642242
